This is an account of results in patent US20200102553A1.

This test concerns the target membrane-tethered Cre fusion: signal peptide, flag tag, CD8 transmembrane domain, GzB cleavage site, Cre recombinase (UniProt P01732). Put plainly: cell-based or functional assay.

With “Granzyme B (GzB) (from UniProt P10144 21-247) (enzyme)”, the reporter inversion by released Cre, qPCR came to 3 fold.
